Test results as given in the DeepSol protein solubility set.

Assay: soluble on expression in E. coli; label from the status in PepcDB or PDB records

| Sequence | soluble on expression in E. coli |
| --- | --- |
| MGSDKIHHHHHHMYNVGGVVLKRYFVAPGRINVIGEHTDYNEGFVLPVAIDKYVLLSVEKTSGSKISLSSMGREPVSFDESKIQKTGDWSDYLKGVLWVLKDELGTEFGGMSIEINSNLPEGAGLSSSAAVEVAMIVALNSSFNLKLDETELYDYARKAENEFVGVKCGVMDQFAAVMGKKDKAIFLDTLEMRYEYVPLELGDYTFLVFDSKVHHSLSKGGYNTRREEARKALEILGKSSYRDVSMVDLFPNRSRLGELYYRRALHVVSENMRVLESVKIMSNSNFENLGRLLIQSHESLALDYEVSCDETDFIVNTLREMKGVSGARMIGAGFGGSVLSLCEKEEEKKIVEVIKTRYKERFGIDLDSYEVRTSDGAREVDSSFSL | not soluble |
| MGSDKIHHHHHHAQKKDFSYKFYGQIRTDLYYNSRANEETVDGLFYMYPKDEVFDSNGRDLNATANGSFYTLYTRLGLDVKGPKLGRAMTSAKVEADFRGSGTSYSTIRLRHAYLNLDWGRSALLLGQTWHPLFGDVSPQILNLSVGAPFQPFSRAPQIRYRYTHKGFQLTGAAIWQSQYLSQGIVGKSQTYIKNSCVPEFYLGLDYKANGWIAGAGIELLSLKPRTESKVEDQVYKVNERITTLSYEGHVKYSNKDWFVGAKTVLGSNLTQTSMLGGFGIKSIDNRTGEQKYTPIRVSSSWLNVVYGQKWKPGIFLGYVKNMGTSDALASNQVYGTGTNVDQVVTAGAELTYNVNHWKFGVEYTYTSAAYGSLYLKNGKIIDTHSVGNNRIVGVAMFMF | not soluble |
| MNKAAQKVLKLLGHTEIARVNSSCGAEQEYFLVDSNFAHQRPDLLLAGRTLFGKSPAKGQEFDDHYFGAIPERVQIFMQDVEAQLYKLGIPAKTRHNEVAPGQFEIAPVFEAANVASDHQQLIMTTLKTTAKKHGFMCLLHEKPFAGINGSGKHVNWSVGNATQGNLLDPGDSPHDNAQFLVFCGAVIRGVHKFGPLMRAVIANASNDHRLGANEAPPAIMSVYLGSQLEEVFEQIKNGTVSESKKKGVMDLGVAVLPELTKDAGDRNRTSPFAFTGNRFEFRAVGSSQSVSGPLVALNTILADSLGWIGDRLESELAKGLEISEAILTVLKEIMNDHGSVIFGGNGYSEEWHREAVQERGLRNLPTTADALPVLKEDEVVALFDQLKVLTPIELESRFEVYAEQYIKSIEV | not soluble |
| MGSDKIHHHHHHMAGYNTYVVGKWHVGTKSVPEDYGIKGHNFDGYGYPGSGVYKNLVFNQPPTHSNRYKEWLEEKGYEIPEVSRAYFGDNPHLRVQELCGLLSGAKDQTIPYFIIDEAKKYIQESLDEGKPFFAWINFWGPHTPCIVPEPYYSMYRKEDVVLDKSFFTPLEGKPDHFRTISKMWGMWEASEDHWKEVITKFWGYITLIEDDNLVYLHDLTSTVFDLANQKVPESFEGQSVLPIMRQHQDNQRKGVLGQLAGHFVYFEQRMWRRKDYKLVFNATDVCELYNIRNDPEEMHNLFYDPQYNRIKKEMLEEMRAEMKRLNDPLENWVYRIIDEI | not soluble |
| MTDSKYFTTNKKGEIFELKAELNNEKKEKRKEAVKKVIAAMTVGKDVSSLFPDVVNCMQTDNLELKKLVYLYLMNYAKSQPDMAIMAVNSFVKDCEDPNPLIRALAVRTMGCIRVDKITEYLCEPLRKCLKDEDPYVRKTAAVCVAKLHDINAQMVEDQGFLDSLRDLIADSNPMVVANAVAALSEISESHPNSNLLDLNPQNINKLLTALNECTEWGQIFILDCLSNYNPKDDREAQSICERVTPRLSHANSAVVLSAVKVLMKFLELLPKDSDYYNMLLKKLAPPLVTLLSGEPEVQYVALRNINLIVQKRPEILKQEIKVFFVKYNDPIYVKLEKLDIMIRLASQANIAQVLAELKEYATEVDVDFVRKAVRAIGRCAIKVEQSAERCVSTLLDLIQTKVNYVVQEAIVVIRDIFRKYPNKYESIIATLCENLDSLDEPDARAAMIWIVGEYAERIDNADELLESFLEGFHDESTQVQLTLLTAIVKLFLKKPSETQELVQQVLSLATQDSDNPDLRDRGYIYWRLLSTDPVTAKEVVLSEKPLISEETDLIEPTLLDELICHIGSLASVYHKPPNAFVEGSHGIHRK | soluble |
| PDVSVQEMVSAYTTFVNKGIRVNPLPITRIEDQYGNVVAQFSPNMVEVLPPDAAYKMLYMLKSVVDGGTGSRLRYRYGFKLDMGGKTGTTQNNSD | not soluble |
| MAHHHHHHMADTEAVAGTEAIPPTQNEQHDSAAKKKQANSYYYWHNHEKERAKVGDVAPMPKPVLLKKSDPSVLPASTASYPITKHSWCDGKKNVTVYIDTKLDEKETMVEDTLQVEFGKRRLTVSYIANVQTSKDVATQRRKQLVLCLAKAIKSKESSYKVKDPSGQIVIRLAKAEETSWWELAKKDGKLSDADDSDEENEGKADEGDGAAEEKA | soluble |
| MGSDKIHHHHHHMTIQIDLPETSTNKIIYSDECKDILNLSVAKIQEMFKSSGIILFRGFGITHELMQVFAEQFSSRLTRDDDKPLVEPNGFVSLVDIGMHEILPHRENGSSPFSPDAVWFCCTVPAAEGGETLFWDGIQVWQKLSEELRKLFISKKIKFVHKFPADKWKHFLGSDATISDAKRVLDGFNNVKYQIDQEESIYTEYICSAVLQTKYGNQNAFVNDIITGNSNLKGSVNLELESALTFEDGSLIPDAAIEEIEKVMYSLTQEIRWKPGDLVMIDNSRFLHGRRAFSDNRRRLFSLLSYLNF | not soluble |
| MGSDKIHHHHHHMVEPMTPRFKYTKASQENIQQLGNILEQCFVMSFGDSEIYVKGIGLENFRVIYREQKVAGGLAILPMGQWWGGQRVPMAGIAAVGIAPEYRGDGAAIALIQHTLQEISEQDIPISVLYPATQRLYRKAGYEQAGSSCVWEIPTDSIQIQHASLPLEPVVLKNNPIFHELYQQQAQLTHGYLDRHPAIWQGLNRTLDTETLYSYLIGDKDKPQGYIIFTQERTRDGSILRIRDWVTLSNPAVQSFWTFIANHRSQIDKVTWKSSVIDALTLLLPEQSATIRSQDRWMLRIVNVCKALEARGYPLGVEAELHLEVQDDLLATNQGKFILSVANGKSEVTKGGKGELQLDIKGLASLYTSLFTPRQLQLTGKLQATETALLKATQIFAGESPWMIDFF | not soluble |
| MGSDKIHHHHHHMEFNDQRVRYFFEAARLGGVRAAADRMDIAASAVSRQIRQLEMELGATLFERHRRGFQPTEAGRLLLDYHRKQLSEQEAVLTALRELKGIHRGHVSVVTGGGVISDLIDAIHPFSQRYPQITVGIDIRGTNDIVRAVLEDRAHIGVVFYTAPNPLLRVHRSSIQPLYAVAAPDHPLARAERPIRLEELARHKLALPDVSFGVRQILRDAEKAEQCQLEPAIVTNSFRVMVEYALTGQAATVQPRFSVRRELESGQLQAIPIQQRNLQQAEVHLITHHGRRLSPAAARLLETLAASMPAFRDSAVTP | not soluble |
| MERVTRKVQVTGGSTYIISLPPEWIKRNNIGKGSEVSVIDQGSDLVVTAPENSEPEITKKITLPGSYTGKPLQRLLTSTYISGFDTLVVVSKDKMTAEMRDDIKRFAKVVMGIEVIEETSRSIVLQNVLNASTFPLQKAIRRMSLNVSTMIEDTIKAIQDEDDDLVENIILRDDEVDRYQWYIYREVKIRCRDDRSNVYILVLSRILERIADHAVNICQAIKNRKGIKGKEKMVENLAYSKDVYNQAMETFYSKNFGEIDGIINRKSEITSRKYELLKILSYDSVLSSVAEEISRIGLYGTDIAELAMDLIMSDKDEFSV | not soluble |
| MGTVLFEDKASETKGSDIYHRIIPDAESYIKEQARTVLATLYNSPEDSITPVNKIHYTLEDIEGISAKGGGNGDVTIFYSTRHIEKSFAENDTAKLFFETRGVLLHELTHAYQLEPQGIGSYGTNRVFWAFIEGMADAVRVANGGFDGPNARPKGGNYMDGYRTAGYFFVWLRDNKDPEFLRKFNRSTLEVIPWSFDGAIKHILGTEYSIDELWHEYQVAVGDIQVLEHHHHHH | not soluble |
| VQVLRLGSVGPDVKLAQSLLNKIGYPVGAVDGIYGTRTRQAVIAFQRNNGLVADGIVGPATWSVFEQFLRGYAIYYVRPGDTLYNIAGRFYTSVNSIVTANPGINPNVINIGQRLVVPYGIDVVFTDIDYTYEIMERDIQGLKARYPFLETGVAGTSVLGRNLYYLRLGTGPRQVFYNAAHHAIEWITTVLLMKFAENFLKAYSTGSRIRGYNVREIWNQSSIYIVPMVNPDGVDLVLNGLSPTNPYYADLLRWNTTGRPFSQVWSANIRGVDLNRNYPASWEEAKAQEEALGIFGPGPTRYGGPYPLSEPESSAMVSFTRTHDFRLALAYHSQGRVIYWNYLNLAPPESLTIANAFARVSGYIVLDVPYEAAYAGYKDWFIQEYRRPGFTIEVGLGQNPLPISQFNTIYNDNEEILLLASLI | not soluble |
| MGSDKIHHHHHHMTPLAPHEASQDESAIAERIASAMPRMTPIHRRMGEFVLANPFRAATMRIDELAQAVNASIATANRFAKALGFDGYPAMRAALVRGFEATLGPVERLRSAQEQEQEQGVRGAAWIDAVFDQAIENIENTRARLDATDVEAAVEAIVGARRVLILGAGSSAFLTGLMEHGLSVCHDNVQSLALLGGPTHAARRLYTADSRDLVIALAFPRYVKDTIELARRAAARGARVLGISDGPGSPLAPVASLNLYVKAQRRFAATSEAAVLTMIEALIDAVALRTHRSAKSAAEMTEFLLPWLMQPPAALPAANPSSSGPKKS | not soluble |
| MSLAEPIESGKQYVELTSAVPVAVPGKIEVIELFWYGCPHCYAFEPTINPWVEKLPSDVNFVRIPAMFGGPWDAHGQLFITLDTMGVEHKVHAAVFEAIQKGGKRLTDKNDMADFVATQGVNKDDFLKTFDSFAVKGKIAQYKELAKKYEVTGVPTMIVNGKYRFDLGSAGGPEKTLQVADQLIDKERAAAKAEGHHHHHH | soluble |
| MGSDKIHHHHHHMSAALSHWRRWPSVANYGKKRFDIHQSSLKKRQGLMTPHFFGFGSLVNTATHVYGNTRPARLEGWRRTWVRTPDRSMAFLSVTPAPGHVIEGLLAAVPNGDWAALDERETGYVRVDVTPQVAHDMAPAPQISLYQVPEESHDRNARDHKILLSYLDVVLRGYREVFGDTGAEAFMATTDGWDTPILNDRATPYYPRHQVMTPDEHALHDALIAEAGAQVLAGGE | not soluble |
| MAHHHHHHMPCEGCGLSEAAMQCPTCKKLDMPPSYFCSQACFKEHWADHKLKHTQSALPTIPTMTEAAMNAFNFTGSLRPGRITPRRAVPSHIPRPDYANRADGLSPAEEKDRGAKVRVYNLQSLHDDSKETADIQRVKKVCRLSREVLDIATAAVRPGVTTDEIDRIVHEATIERDMYPSPLNYYNFPKSVCTSVNEVICHGIPDSRGLEEGDIVNIDVSSYLNGFHGDLNETVFVGKPDADSVRLVHAAYESLYAGIKVVKPEALYKHVGDAIEACAVQYGCSVVRAYTGHGVGHLFHTAPTVCHYANNKSLGMMRPGHVFTIEPMINLGTWQDVTWPDNWTSTTRDGKRSAQFEHTMVVTNDGAELFTDWTDGIPTYQKQLEGWNIPLPSPSNGVAH | not soluble |
| MAHHHHHHMEHVNANEKNGYLASEKNELTKNKVEEHTYDYDYVVIGGGPGGMASAKEAAAHGARVLLFDYVKPSSQGTKWGIGGTCVNVGCVPKKLMHYAGHMGSIFKLDSKAYGWKFDNLKHDWKKLVTTVQSHIRSLNFSYMTGLRSSKVKYINGLAKLKDKNTVSYYLKGDLSKEETVTGKYILIATGCRPHIPDDVEGAKELSITSDDIFSLKKDPGKTLVVGASYVALECSGFLNSLGYDVTVAVRSIVLRGFDQQCAVKVKLYMEEQGVMFKNGILPKKLTKMDDKILVEFSDKTSELYDTVLYAIGRKGDIDGLNLESLNMNVNKSNNKIIADHLSCTNIPSIFAVGDVAENVPELAPVAIKAGEILARRLFKDSDEIMDYSYIPTSIYTPIEYGACGYSEEKAYELYGKSNVEVFLQEFNNLEISAVHRQKHIRAQKDEYDLDVSSTCLAKLVCLKNEDNRVIGFHYVGPNAGEVTQGMALALRLKVKKKDFDNCIGIHPTDAESFMNLFVTISSGLSYAAKG | not soluble |
